EC50, fold difference in EC50 against the parent (control) anti-CD70 antibody and fold difference in EC50 against the parent antibody data for 1 substance are collected here from US20190276796A1.

pEC50: −log10 of the molar value.

The target of assay [1] is human FcγRIIIA V158 (human) (UniProt P08637). The experiment in a line: competition flow cytometry on CHO DG-44 cells expressing human FcγRIIIA V158; competitor 50 nmol/L Alexa Fluor 488 labeled anti-CD70 IgG1. Background: In flow cytometry, cells or beads pass a laser one at a time.
Assay [2] has as its target murine FcγRIV (murine). The experiment in a line: competition flow cytometry on CHO DG-44 cells expressing murine FcγRIV; competitor Alexa Fluor 488 labeled anti-CD70 IgG1.
The target in assay [3] is human FcγRIIIA V158 (human) (UniProt P08637). The experiment in a line: competition flow cytometry on CHO DG-44 cells expressing human FcγRIIIA V158; competitor Alexa Fluor 488 labeled anti-CD70 IgG1.
Assay [4] deals with murine FcγRIV (murine). The experiment in a line: competition flow cytometry on CHO DG-44 cells expressing murine FcγRIV; competitor 200 nmol/L Alexa Fluor 488 labeled anti-CD70 IgG1.
Chain of murine FcγRIV (murine) (A0A0B4 entry or part of it limits assumed): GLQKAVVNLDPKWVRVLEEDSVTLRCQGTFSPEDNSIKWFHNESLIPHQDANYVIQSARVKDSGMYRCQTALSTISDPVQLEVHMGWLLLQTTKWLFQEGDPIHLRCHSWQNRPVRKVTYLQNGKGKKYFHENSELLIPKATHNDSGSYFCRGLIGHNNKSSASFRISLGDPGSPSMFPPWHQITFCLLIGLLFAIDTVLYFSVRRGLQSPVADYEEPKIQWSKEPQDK

Chain of human FcγRIIIA V158 (human) (P08637 17-254 F176V): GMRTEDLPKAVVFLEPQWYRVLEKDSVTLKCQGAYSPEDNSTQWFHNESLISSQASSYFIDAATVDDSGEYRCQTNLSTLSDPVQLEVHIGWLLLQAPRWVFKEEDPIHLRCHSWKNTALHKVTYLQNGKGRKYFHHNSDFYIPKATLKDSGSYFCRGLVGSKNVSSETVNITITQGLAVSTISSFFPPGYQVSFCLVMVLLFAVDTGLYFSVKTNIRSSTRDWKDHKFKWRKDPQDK

The term pEC50 denotes −log10 of the EC50, conventionally taken in molar units. Read a high pEC50 as a small EC50. Turning to “h1F6 antibody from host cells cultured in the presence of 50 µM alkynyl fucose peracetate (non-core fucosylated anti-CD70 antibody)”, the pEC50 in assay [1] is 8.10; with murine FcγRIV (murine) [4] it was 7.68. The fold difference in EC50 against the parent (control) anti-CD70 antibody in the assay with murine FcγRIV (murine) [2] was 18 fold. Moreover, the fold difference in EC50 against the parent antibody in assay [3] amounted to 14 fold.
